Laboratory results taken from the nanobody polyreactivity screen of Harvey et al. (2022).

Assay: yeast display, Sf9 membrane polyspecificity reagent, FACS + sequencing; frameworks hold sequencing errors
How it was run: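 In a synthetic yeast display library (Saccharomyces cerevisiae BJ5465), nanobody expression was induced with galactose for 36–48 hours. FACS gates were set low and high (top ~1%) using anti-HA fluorescence for expression and streptavidin fluorescence for binding of the Sf9 membrane reagent. Each polyreactivity label is drawn from the gate of origin.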

Row | Sequence | polyreactivity (PSR sort gate)
1 | QVQLVESGGGLVQAGGSLRLSCAASGFSFTSNAMAWYRQAPGKERELVAAITTRGGSTYYADSVKGRFTLSRDNAKNTVDLPMNSLKPEDTSVYYCAARYSYWGLLRYDYWGQGTQVTVSS | high polyreactivity
2 | QVQLVESGGGLVQAGGSLRLSCAASGFTFAANAMGWYRQAPGKERELVAAISSDSTYADSVKGRFTISRDNAKNTVYLQMNSLKPEDTAVYYCAKDRYIVNSPGLDYWGQGTQVTVSS | low polyreactivity
3 | QVQLVESGGGLVQAGGSLRLSCAASGRIIEYYAMGWYRQAPGKERELVAAISSGGSTYYADSVKGRFTISRDNAKNTVYLQMNSLKPEDTAVYYCNTRYVYTRGGPLKRDYWGQGTQVTVSS | high polyreactivity
4 | QVQLVESGGGLVQAGGSLRLSCAASGSIFTEYAMGWYRQAPGKERELVADINSGDITYYADSVKGRFTISRDNAKNTVYLQMNSLKPEDTAVYYCATGWYYTSSTYRSSDFDYWGQGTQVTVSS | low polyreactivity
5 | QVQLVESGGGLVQAGGSLRISCAASGSIFTSNVMGWYRQAPGKERELVAAITITGTTNYADSVKGRFTISRDNAKNTVYLQMNSLKPEDTAVYYCAKRYYRFYQGWPPEDYWGQGTQVTVSS | low polyreactivity
6 | QVQLVESGGGLVQAGGSLRLSCAASGRTFSYYAMGWYRKAPGKERELVAAFSGRGASTYYADSVKGRFTISRDNAKNTVYVQMNSLKPEDTAVYYCNAVPYYQYEYWGQGTQVTVSS | low polyreactivity
7 | QLQLVESGGGLVQAGGSLRLSFAAYGRTFTSNAKGWSRPAPGKERELVAGITSSTGNTHYADSVKGRFTSSRDNAKNTVNFQMNSLKPEDTAVFYCAAVYYVRGYWGTYSRWYDYWGQGTQVTVSS | high polyreactivity
8 | QVQLVESGGGLVQAVGSLRLSCAASGLIFERYAMGSYIQAPGKEREFVAAISKRGGSTYYADSVKGRFTISRDNAKNTVYLQMNSLKPEDTAVYDCAVQPNYYGMGYCGQGTQVTVSS | high polyreactivity
9 | QVQLVESGGGLVQAGGSLRLSCADSGFIFAYYVMGWYRQAPGKERELVAAISRGGGSTYYADSVKGRFTISRDNAKYTVYLQMNSLKPEDTAVYYCATYSHALRYDYWGQGTQVTVSS | high polyreactivity
10 | QVQLVESGGGLVKAGGSLRLSCAASGFIFRYYAMGWYRQAPGKERELVAAITSTGRTYYADSVKGRFTISRDNAKNTVYLQMNSLKPEDTAVYYCAKRSYPWGQGTQVTVSS | low polyreactivity
11 | QVQLVESGGGLVQAGGSLRLSCAASGFIFTYNAMGWYRQAPGKERELVASIRSTGGSTYYADSVKGRFTISRDNAKNTVYLQMNSLKPEDTAVYYCAARARGTNMYYWGQGTQVTVSS | high polyreactivity
12 | QVHLVEAGGGLVQAGGSLRLSCAASACTFWPYARGLSSQAPGQDTELVAAMTSSGSTNYADSVKGRFTITRDNAKNTDYLQMNSLKPEDTAVNYCAADHRPSRFQSSVHLYYYWGQGTQVTVSS | low polyreactivity
13 | QVQLVESGGGLVQAGGSLRLSCAASGSTFSGYTMGWYRQAPGKEREFVAAISVSGGSTYYADSVKGRFTISRDNAKNTVYLQMNSLKPEDTAVYYCNTVTSGFLSYDYWGQGTQVTVSS | high polyreactivity
14 | QVQLVESGGGLVQAGGSLRLSCAASGRTFGKNAMGWYRQAPGKEMEFVAAITSRGGSTYYADSVKGRFTISRDNAKNTVYLQLNSLIPVDTAVYYCYGEYKRPSQRTEHYYWGQGSQVTVSS | low polyreactivity
15 | QVQLVESGGGLVQAGGSLRLSCAASGYIFTDYDMGWYRPAPGKEREFVAAISSSGGSTYYADSVKGRFTISRDNAKNTVYLQMNRLKPEDTAVYYCAARRRYGRYRGAYDYWGQGTRVTVSS | high polyreactivity
16 | QVQLVESGGGLVQAGGSLRLSCAASGFTFYRYAMGWYRQAPGKERELVATISASGASTYYADSVKGRFSISRDNAKNNVYLQMNRLKPEDTAVYYCAVRYKSWYGFNYWGQGTQVTVSS | high polyreactivity
17 | QVQLVESGGGLVQAGGSLRLSCAPSGSTFGFYAMGWYIQAPGKERELVAAISRGGSTNYADSVKGRFTISRDNAKNTVYLQMNSLKPEDTAVYYCAKAYHATSDYWGQGTQVTVSS | low polyreactivity
18 | QVQLVESGGGLVQAGVSLRLSCAASGSIFSYNAMGWYRQAPGKERELVAAINNGGSTYYADSVKGRFTISRDNAKNTVYLQMNSLKPEDTAVYYCAAQSGHYAEYNYWGQGTQVTVSS | high polyreactivity
19 | QVQLVESGGGLVQAGGSLRLSCAASGRIFYNYAMGWYRQAPGKERELVAAISGSGGSTYYADSVKGRFTISRDNAKNTVYLQMNSLKPEDTAVYYCNARDVVYLITPYFLVYVNLDYWGQGTQVTVSS | low polyreactivity
20 | QVQLVESGGGLVQAGGSLRLSCAASGRSFNYNTMGWYRQAPGKERELVAAINKGGTRTYYADSVKGRFTISRDNAKNTVYLQMNSLKPEDTAVYYCAARLYSYDYWGQGTQVTVSS | high polyreactivity
21 | QVQLVESGGGLVQAGGSLRLSCAASGSTFHYAMGWYRPAPGKERELVAAITYGGGRTFYADSVKGRFTISRDNAKNTVYLQMNSLKPEDTAVYYCAKVVYYYGRGWTDYRSTMDSWGQGTQVTVSS | low polyreactivity
22 | QVQLVESGGGLVQAGGSLRLSCAASGRISRLNAMGWYRQAPGKERELVATISGRGGGTYYADSVKGRFTISRDNAKNTVYLQMNSLKPEDTAVYYCNRRWFTRYDYWGQGTQVTVSS | high polyreactivity

Row | Sequence | polyreactivity (PSR sort gate)
23 | QVQLVESGGGLVQAGGSLRLSCAASGFTFYRYAMGWYRQAPGKERELVAAITWSGGSTYYADSVKGRFTISRDNAKNTVYLQMNSLKPEDTAVYYCAASRWIFQVNDYDYWGQGTQETVSS | high polyreactivity
24 | QVQLVESGGGLVQAGGSLRLSCAASGRIFSYYAMGWYRQAPGKERELVAAINWSGGSTYYADSVKGRFTISRDNAKNTVYLQMNSLKPEDTAVYYCAVDWTSAYGTYYYTPYDSWGQGTQVTVSS | low polyreactivity
25 | QVQLVESGGGLVQAGGSLRLSCAASGFTFGVYAMGWYRQAPGKERELVATISSSGSTNYADSVKGRFTISRDNAKNTVYLQMNSLKPEDSAVYYCAVYYLYRRRQYYYWGQGTKVTVSS | low polyreactivity
26 | QVQLVESGGGLVQAGGSLRLSCAASGRIFLKYAMGWYRHAPGKERELVAAISLSTGSTYYADSVKGRFTISRDNAKNTVYLQMNSLKAEDTAVYYCAATRKYRYVYWGQGTQGTVSS | high polyreactivity
27 | QVQLVESGGGLVQAGGSLRISCAASGITFSYYAMGWYIQAPGKERELVAAINSGGGSTYYADSVKGRFTISRDNAKNTVYLQMNRLKPEDTAVYYFAARYRSRYDYYYDRDYWGQGTQVTVSS | low polyreactivity
28 | QVQLVESGGGLVQAGGSLRLSCAASGSIFVYNAMGWYRQAPGKEREMVARITYIGTSTYYADSVKGRFTISRDNAKNSVYLQMNSLKPEDTGVYYCNARRRHEGSPPYGYWGQGTQVTVSS | high polyreactivity
29 | QGQLVESGGGIVQAGGSLRLSCAASGFNFWQYAMGLYRQAPGKERELVAAITSSGTSTYYADSVKGLFTISRDNAKNTVYLQMNSLKPEDTAVYSCAADLGYYDLYYWGQGTQVTVSS | low polyreactivity
30 | QVQLVESGGGLVQAGGSLRLSCAASGRIFSYYAMGWYRQAPGKERELVAAISSSGGSTYYADSVKGRFTISRDNAKNTVYLQMNSLKPEDTAVYYCAKLQYGFGRYGYWGQGTQVTVSS | high polyreactivity
31 | QVQLVESGGGFVQAGGSLRLSCAASGSIFWLYDMGWYRQAAGKVRELVAAISWSTGGTYYADSVKGRFTISRENAKNTVYLQMNSLKPEDTAVYYCNAETYDQYNYWGQGTQVTVSS | low polyreactivity
32 | QVQLVESGGGLVQAGGSLRLSCAASGLIFYLYAMGWYRQAPGKERELVAAITSGGGSTYYADSVKGRFTHSRDHAKNTVYLQMNSLKPEDTGVYYCAARLVLYITVVYEDDYWGQGTQVTVSS | low polyreactivity
33 | QVQLVESGGGLVQAGGSLRLSCPASGSTFYGYVMGGYRQAPGKERELVAAISGSTYYADSVKGRFTISRDNAKNTVYLQMNSLKPEDTAVYYCNADDYRSYGGDSWGQGTQVTVSS | low polyreactivity
34 | QGQLVESGGGLVQAGGRLRLSCAASGYNFGSYAMGWYRQAPGKERELVAAISGGGSTNYADSVKGRFTISRDNAKNTVYLQMHSLKPEDTAVYYCAAYPYLYPLRFEEYDHWGQGTQVTVSS | low polyreactivity
35 | QVQLVESGGGLVQAGGSHRLSCAASGSTFSYNTMGWYRQAPGKERELVAAIRSGGSTYYADSVKGRFTISRDNAKNTVYLQMNSLKPEDTAVYYCATDKFHRKVLHWYDYWGQGTQVTVSS | low polyreactivity
36 | QVQLVESGGGLVQAGGRLRLSCAASGRTFNVNVMGWYRQAPGKERELVAAIRYTGGSTYADSVKGRFTISRDNAKNTVYLQMNSLKPEDTALYYCNADTFFPFDHGMDYWGQGTQVTVSS | low polyreactivity
37 | QVQLVESGGGLVQAGGSLRLSCAASGRIFSYNAMGWYRQAPGKERELVAAITGGGSTNYADSVKGRFTISRDNAKNTVYLQMNSLKAEDTAVYYCAARSWSYKYWGQGTQVTVSS | high polyreactivity
38 | QVQLVESGGGLVQAGGSLRLSCAASGSTFRNYAMGWYRQAPGKERELVAAISGSGGRTNYADSVKGRFTISRDNAKNTVYLQMNSLKPEDNAVYYCNARFPDWALSEISHSTTYGYWGQGTQVTVSS | low polyreactivity
39 | QVQLVESGGGLVQAGGSLRLSCAASGSIFQYNAMGWYREAPGHEWELVAVISRSGSRTYYADSVKGRFTISRDNAKNTVYLQMNSLKPEDTAVYYCAADIWFYTYYGYDYWGQGTQVTVSS | high polyreactivity
40 | QVQLVESGGGLVQAGGSLRLSCAASGSTFYWYAMGWYRQAPGKERELVAAISRSSGSTYYADSVKGRFTISRDNAKNSVYLQMNSLKPEDTAVYYCAADYYLRSFVWTAYDSWGQGTQVTVSS | high polyreactivity
41 | QVQLVESRGGLVQAGGSLRLSCAASAFTFDYYVMGWYIQAPGKERELVAAISLRSGRTYYADSVKGRFTISRDNAKNTVYLQMNSLKPEDTAVYYCAAESRGVGAYYYWGQGTQLTVSS | high polyreactivity
42 | QVQLVESGGGLVQEGGSLRLSCAASGRTFVSNAMGWYRQAPGKERELVAAIRYGGGRTYYADSVKGRFTISRDNAKNTVYLQMNSLKPEVTAVFYCAKRSVGGTGYYWGQGTQVTVSS | high polyreactivity
43 | QVQLVESGGGLVQAGGSLRLICAASGSTFKYNAMGWYRQAPGKERELVAAISSGGSTNYADSVKGRFTISRDNAKNTVYLQMHSLKPEDTAVYYCNAAYNYVTPWYFYWGQGTQVTVSS | high polyreactivity
